The values that follow come from patent publication US20110281938A1 (BAXTER INTERNATIONAL, published 2011).

The experiment deals with T1, Full-length TFPI (recombinant human tissue factor pathway inhibitor, American Diagnostica, E. coli expressed) (human, UniProt P10646 29-304).
T1 construct: also called recombinant TFPI; human TFPI
T1 sequence: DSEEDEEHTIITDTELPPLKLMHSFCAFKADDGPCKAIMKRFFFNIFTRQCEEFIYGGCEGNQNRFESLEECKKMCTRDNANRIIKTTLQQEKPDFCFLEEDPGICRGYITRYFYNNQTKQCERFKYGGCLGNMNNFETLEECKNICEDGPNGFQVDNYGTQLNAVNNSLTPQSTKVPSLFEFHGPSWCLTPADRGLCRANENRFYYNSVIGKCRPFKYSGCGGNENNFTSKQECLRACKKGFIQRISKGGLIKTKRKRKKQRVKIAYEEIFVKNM
The experiment is described as follows: dot-blot (nitrocellulose filtration) binding competition: 10 nM TFPI, trace radiolabeled aptamer ARC17480 as the displaced ligand, FXa varied 2000-0.10 nM. How it is done: For these experiments, human TFPI at a final concentration of 10 nM (American Diagnostica, Stamford, Conn., catalog #4900PC) was incubated with trace amounts of radiolabeled ARC17480 and different concentrations of human FXa (Haematologic Technologies, Essex Junction, Vt. catalog #HCXA-0060) or ARC19499 (2000 nM-0.10 nM). A control was also carried out in the absence of TFPI in which trace amounts of radiolabeled ARC17480 was incubated with different concentrations of FXa (2000 nM-0.10 nM). The percentage of radiolabeled ARC17480 bound was plotted as a function of competitor concentration and fit to the equation y=(max/(1+x/IC₅₀))+int, where y=the percentage of radiolabeled ARC17480 bound, x=the concentration of competitor, max=the maximum radiolabeled ARC17480 bound, and int=the y-intercept, to generate an IC₅₀ value for binding-competition. […] FXa partially competes with ARC17480 for binding to TFPI, as evidenced by a plateau in the competition-binding curve at concentrations above ˜75 nM. In contrast, ARC19499 completely competes with radiolabeled ARC17480 for binding to TFPI.

B1: human FXa (Haematologic Technologies, catalog #HCXA-0060) (enzyme)
chain 1: ANSFLEEMKKGHLERECMEETCSYEEAREVFEDSDKTNEFWNKYKDGDQCETSPCQNQGKCKDGLGEYTCTCLEGFEGKNCELFTRKLCSLDNGDCDQFCHEEQNSVVCSCARGYTLADNGKACIPTGPYPCGKQTLER
chain 2: IVGGQECKDGECPWQALLINEENEGFCGGTILSEFYILTAAHCLYQAKRFKVRVGDRNTEQEEGGEAVHEVEVVIKHNRFTKETYDFDIAVLRLKTPITFRMNVAPACLPERDWAESTLMTQKTGIVSGFGRTHEKGRQSTRLKMLEVPYVDRNSCKLSSSFIITQNMFCAGYDTKQEDACQGDSGGPHVTRFKDTYFVTGIVSWGEGCARKGKYGIYTKVTAFLKWIDRSMKTRGLPKAKSHAPEVITSSPLK
notes: FXa is a two-chain protease; also called Factor Xa
As for B1, the “IC50 (read off the curve)” value is roughly 7 nM.
